Starred links: 1 amine or outer side, 2 acyl side, 3 side chain; linkers in the order of their positions; H or OH if unused. Non-standard residues stand in square brackets, D forms with d. Groups on a side chain read outwards from the residue. *: point of attachment. Undecanoyl(11-OPh(4-COOH)) = O=C(O)c1ccc(OCCCCCCCCCCC(=O)*)cc1; Decanoyl(10-(4-HOOC-PhO)) = O=C(O)c1ccc(OCCCCCCCCCC(=O)*)cc1; Decanoyl(10-O(3-COOH-Ph)) = O=C(O)c1cccc(OCCCCCCCCCC(=O)*)c1; C20 diacid = O=C(O)CCCCCCCCCCCCCCCCCCC(=O)*; C18 diacid = O=C(O)CCCCCCCCCCCCCCCCC(=O)*; C16 diacid = O=C(O)CCCCCCCCCCCCCCC(=O)*; γGlu = O=C(O)[C@H](CCC(=O)[*:2])N[*:1]; εLys = N[C@@H](CCCCN[*:1])C(=O)[*:2]; Trx = NC[C@H]1CC[C@H](C(=O)O)CC1; AEEA = NCCOCCOCC(=O)O; Aib = CC(C)(N)C(=O)O
B1: Compound 0260 (peptide)
peptide: H[Aib]EGTFTSDK([AEEA-AEEA-γGlu-C16 diacid])SSYLEEQAAREFIAWLVRGRGGGGGEASELSTAALGRLSAELHELK([AEEA-AEEA-γGlu-C16 diacid])TLPRTETGSGSP-NH2
B2: Compound 0259 (peptide)
peptide: H[Aib]EGTFTSDK([AEEA-AEEA-γGlu-C16 diacid])SSYLEEQAAREFIAWLVRGRGGGGGEASELSTAALGRLSAELHK([AEEA-AEEA-γGlu-C16 diacid])LATLPRTETGSGSP-NH2
B3: Compound 0042 (peptide)
peptide: H[Aib]EGTFTSDVSSYLEGQAAKEFIAWLVRGRK([AEEA-AEEA-γGlu-C18 diacid])GGEASELSTAALGRLSAELHELATLPRTETGSGSP-NH2
B4: Compound 0267 (peptide)
peptide: HWEGTFTSDVSSYLEEQAAREFIEWLVRGK([AEEA-AEEA-γGlu-Trx-C20 diacid])GEASELSTAALGRLSAELHELATLPRTETGSGSP-NH2
B5: Compound 0266 (peptide)
peptide: H[Aib]EGTFTSDK([AEEA-AEEA-γGlu-Trx-C20 diacid])SSYLEEQAAREFIAWLVRGRGGGGEASELSTAALGRLSAELHELATLPRTETGSGSP-NH2
B6: Compound 0255 (peptide)
peptide: HWEGTFTSDVSSYLEEQAARK([AEEA-AEEA-γGlu-Undecanoyl(11-OPh(4-COOH))])FIEWLVRGRGEGGGGGASELSTAALGRLSK([AEEA-AEEA-γGlu-Undecanoyl(11-OPh(4-COOH))])ELHELATLPRTETGSGSP-NH2
B7: Compound 0233 (peptide)
peptide: HWEGTFTSDVSSYLEEQAAREFIEWLVRGK([AEEA-AEEA-γGlu-Decanoyl(10-(4-HOOC-PhO))])GEGGGGGASELSTAALGRLSK([AEEA-AEEA-γGlu-Decanoyl(10-(4-HOOC-PhO))])ELHELATLPRTETGSGSP-NH2
B8: Compound 0265 (peptide)
peptide: H[Aib]EGTFTSDVSSYLEEK([AEEA-AEEA-γGlu-Trx-C20 diacid])AAREFIAWLVRGRGGGGEASELSTAALGRLSAELHELATLPRTETGSGSP-NH2
B9: Compound 0160 (peptide)
peptide: H[Aib]EGTFTSDVSSYLEEQAARK([γGlu-C18 diacid])FIAWLVRGRGGGGGGGGK([γGlu-C18 diacid])EASELSTAALGRLSAELHELATLPRTETGSGSP-NH2
B10: Compound 0254 (peptide)
peptide: HWEGTFTSDVSSYLEEQAARK([AEEA-AEEA-γGlu-Trx-C20 diacid])FIEWLVRGRGEGGGGGASELSTAALGRLSAELHELATLPRTETGSGSP-NH2
B11: Compound 0231 (peptide)
peptide: HWEGTFTSDVSSYLEEQAARK([AEEA-AEEA-γGlu-Decanoyl(10-(4-HOOC-PhO))])FIEWLVRGRGEGGGGGASELSTAALGRLSK([AEEA-AEEA-γGlu-Decanoyl(10-(4-HOOC-PhO))])ELHELATLPRTETGSGSP-NH2
B12: Compound 0271 (peptide)
peptide: HWEGTFTSDVSSYLEEK([AEEA-AEEA-γGlu-C18 diacid])AAREFIEWLVRGRGEASELSTAALGRLSAELHELATLPRTETGSGSP-NH2
B13: Compound 0180 (peptide)
peptide: H[Aib]EGTFTSDVSSYLEEQAAREFIEWLVRGRK([εLys-AEEA-AEEA-γGlu-Trx-C20 diacid])EAEAEASELSTAALGRLSAELHELATLPRTETGSGSP-NH2
B14: Compound 0202 (peptide)
peptide: H[Aib]EGTFTSDVSSYLEGQAAK([AEEA-AEEA-γGlu-C20 diacid])EFIAWLVRGRGQEPGQAPEASELSTAALGRLSAELHELATLPRTETGSGSP-NH2
B15: Compound 0261 (peptide)
peptide: H[Aib]EGTFTSDK([AEEA-AEEA-γGlu-C16 diacid])SSYLEEQAAREFIAWLVRGRGGGGGEASELSTAALGRLSAELHELATLK([AEEA-AEEA-γGlu-C16 diacid])RTETGSGSP-NH2
B16: Compound 0179 (peptide)
peptide: H[Aib]EGTFTSDVSSYLEEQAAREFIEWLVRGRK([AEEA-AEEA-γGlu-Trx-C20 diacid])EAEAEASELSTAALGRLSAELHELATLPRTETGSGSP-NH2
B17: Compound 0269 (peptide)
peptide: HWEGTFTSDVSSYLEEQAAREFIEWLVRGRK([AEEA-AEEA-γGlu-Trx-C20 diacid])GGGGEASELSTAALGRLSAELHELATLPRTETGSGSP-NH2
B18: Compound 0234 (peptide)
peptide: HWEGTFTSDVSSYLEEQAAREFIEWLVRGK([AEEA-AEEA-γGlu-Decanoyl(10-(4-HOOC-PhO))])GEGGGGGASELSTAALGRLSAELHELK([AEEA-AEEA-γGlu-Decanoyl(10-(4-HOOC-PhO))])TLPRTETGSGSP-NH2
B19: Compound 0268 (peptide)
peptide: HWEGTFTSDVSSYLEEQAAREFIAWLVRGRK([AEEA-AEEA-γGlu-Trx-C20 diacid])GGGGEASELSTAALGRLSAELHELATLPRTETGSGSP-NH2
B20: Compound 0232 (peptide)
peptide: HWEGTFTSDVSSYLEEQAARK([AEEA-AEEA-γGlu-Decanoyl(10-(4-HOOC-PhO))])FIEWLVRGRGEGGGGGASELSTAALGRLSAELHELK([AEEA-AEEA-γGlu-Decanoyl(10-(4-HOOC-PhO))])TLPRTETGSGSP-NH2
B21: Compound 0263 (peptide)
peptide: H[Aib]EGTFTSDVSSYLEEQAAREFIAWLVRGRK([AEEA-AEEA-γGlu-Trx-C20 diacid])EASELSTAALGRLSAELHELATLPRTETGSGSP-NH2
B22: Compound 0040 (peptide)
peptide: H[Aib]EGTFTSDVSSYLEGQAAK([AEEA-AEEA-γGlu-C18 diacid])EFIAWLVRGRGGGGEASELSTAALGRLSAELHELATLPRTETGSGSP-NH2
B23: Compound 0235 (peptide)
peptide: H[Aib]EGTFTSDVSSYLEEQAAREFIAWLVRGK([AEEA-AEEA-γGlu-Decanoyl(10-O(3-COOH-Ph))])K([AEEA-AEEA-γGlu-Decanoyl(10-O(3-COOH-Ph))])GGGGASELSTAALGRLSAELHELATLPRTETGSGSP-NH2
B24: Compound 0264 (peptide)
peptide: H[Aib]EGTFTSDVSSYLEEQAAREFIAWLVRGK([AEEA-AEEA-γGlu-Trx-C20 diacid])GGGGEASELSTAALGRLSAELHELATLPRTETGSGSP-NH2
B25: Compound 0159 (peptide)
peptide: H[Aib]EGTFTSDVSSYLEGQAAK([εLys-AEEA-AEEA-γGlu-C18 diacid])EFIAWLVRGRGGGGGGGGGEASELSTAALGRLSAELHELATLPRTETGSGSP-NH2
B26: Compound 0270 (peptide)
peptide: HWEGTFTSDVSSYLEEK([AEEA-AEEA-γGlu-Trx-C20 diacid])AAREFIEWLVRGRGEASELSTAALGRLSAELHELATLPRTETGSGSP-NH2
B27: Compound 0191 (peptide)
peptide: H[Aib]EGTFTSDVSSYLEGQAAREFIAWLVRGRGQEPK([AEEA-AEEA-γGlu-C18 diacid])GQAPASRLSTEALGRLSAELHELATLPRTETGSGSP-NH2

Key:
human GLP-1 receptor = human GLP-1 receptor (human, UniProt P43220 24-463); experiment: cell-based or functional assay
[1] = target: T1, human amylin-3 (a) receptor (human, UniProt P30988 25-474; O60896 24-148); experiment: cell-based or functional assay
T1 sequence (looked up) 1: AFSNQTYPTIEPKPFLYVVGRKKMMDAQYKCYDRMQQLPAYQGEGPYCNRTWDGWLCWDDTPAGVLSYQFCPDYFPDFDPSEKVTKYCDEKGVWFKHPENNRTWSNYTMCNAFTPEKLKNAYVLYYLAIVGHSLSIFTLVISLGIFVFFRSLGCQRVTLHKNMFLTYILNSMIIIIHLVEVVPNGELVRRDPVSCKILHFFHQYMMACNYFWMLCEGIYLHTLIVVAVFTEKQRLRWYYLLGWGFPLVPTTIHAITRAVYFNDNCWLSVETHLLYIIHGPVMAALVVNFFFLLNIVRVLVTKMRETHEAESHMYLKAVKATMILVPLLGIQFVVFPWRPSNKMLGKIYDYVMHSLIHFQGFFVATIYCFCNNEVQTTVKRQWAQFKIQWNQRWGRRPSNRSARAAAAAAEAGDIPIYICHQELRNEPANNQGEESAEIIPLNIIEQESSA
T1 sequence (looked up) 2: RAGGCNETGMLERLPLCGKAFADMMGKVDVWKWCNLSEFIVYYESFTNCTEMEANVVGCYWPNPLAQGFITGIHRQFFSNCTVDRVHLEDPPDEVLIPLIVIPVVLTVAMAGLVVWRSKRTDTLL

Row | Binder | Human GLP-1R potency [EC50 (pM)] (human GLP-1 receptor) [pM] | Human AmyR3 potency [EC50 (pM)] [1] [pM]
1 | B1 | 11.9 | 41.8
2 | B2 | 15.8 | 12
3 | B3 | 16.2 | 10.8
4 | B4 | 28.5 | 45.3
5 | B5 | 6.3 | 8.5
6 | B6 | 2.5 | 28.6
7 | B7 | 46.4 | 182
8 | B8 | 6 | 8.1
9 | B9 | 11.9 | 27.3
10 | B10 | 8.9 | 7.7
11 | B11 | 5.6 | 68
12 | B12 | 4.6 | 15.2
13 | B13 | 6.4 | 37
14 | B14 | 10.5 | 28.4
15 | B15 | 17.4 | 23.9
16 | B16 | 8.8 | 35.9
17 | B17 | 7.7 | 7.5
18 | B18 | 38.9 | 38.4
19 | B19 | 26.4 | 14.4
20 | B20 | 6.4 | 74.2
21 | B21 | 13.8 | 25.2
22 | B22 | 20.7 | 7.7
23 | B23 | 10.4 | 24
24 | B24 | 6.5 | 11.7
25 | B25 | 30.3 | 19.3
26 | B26 | 6.3 | 8.6
27 | B27 | 5.9 | 54.8

— patent US20260132182A1 (published 2026)
